Measurements published in publication PMC6126627.

What was measured:
Experiment in all cases: ELISA
[1] = molecular target: murine sarcoma laminin (mouse) (UniProt P19137)
[2] = molecular target: human plasma vitronectin (human)
[3] = molecular target: human plasma fibronectin (human)

## full-length recombinant P4 (rP4^G22-K274), Haemophilus lipoprotein e (from UniProt P26093 22-274) (natural protein)
[1]
  Kd: 9.26 nM
[2]
  Kd: 16.5 nM
[3]
  Kd: 10.2 nM
